In test [1] the target is eGFP-tagged measles virus C protein, full length (human measles virus) (UniProt P03424). The test can be described thus: MST.
Test [2] shares this target. Nature of the test: MST. The source holds these as a separate data set.
In test [3] the target is measles virus (MeV) phosphoprotein (P), optimized construct (human measles virus) (UniProt P03422). Nature of the test: cryo-EM structure.

This passage reports Kd and stoichiometry N results from paper PMC13080021.

Where two headings read alike, the source gives them in different places.

As for “measles virus (MeV) N protein, monomeric (N_ΔN-arm) (domain or fragment)”, the Kd (commonly the constant that tells how readily two partners part at equilibrium) in test [1] came out at 4.57 µM; in test [2] it was 3.92 µM.

In the case of “measles virus (MeV) phosphoprotein (P), optimized construct (from UniProt P03422 1-507) (natural protein)”, the stoichiometry N (usually the number of molecules, sites or subunits per partner or assembly) in test [3] was found to be 4.
